Target: thiolated anti-CD34 antibody conjugated to gas-filled microbubbles encapsulated with DSPS and comprising DSPE-PEG2000-MAL
Experiment: flow cytometry of anti-CD34-conjugated microbubbles after incubation with the FITC-labelled secondary antibody and washing

% of microbubble population fluorescent: 98%
Substance: FITC-conjugated goat-anti-mouse antibody
